The source of these data is the nanobody polyreactivity screen of Harvey et al. (2022).

The data set in a line: yeast display, Sf9 membrane polyspecificity reagent, FACS + sequencing; frameworks hold sequencing errors. In a few lines:
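After 36–48 hours of galactose induction, yeast (Saccharomyces cerevisiae BJ5465) displaying a synthetic nanobody library were stained at 4 °C for 1 hour with 10% biotinylated, detergent-solubilized Sf9 membrane reagent. Streptavidin microbeads enriched the stained cells before FACS sorting into low and high (top ~1%) gates on anti-HA and streptavidin fluorescence. Each clone's polyreactivity label reflects its gate of origin.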
As for “QVQLVESGGGLVQAGGSLRLSCAASGSIFEAYVMGWYRQAPGKQRELVAAITTGGGSTYYADSVKWRFTISRDNAKNTVYLQMNSLKPEDTAVYYCGKDYWFGYEYWGQGTQVTVSS”, the “polyreactivity (PSR sort gate)” value is listed as “low polyreactivity”.
“QVQLVESGGGLVQAGGSLRLSCAASGSIFEDYAMGWYRQAPGKERELVAGINWSGGSTYYADSVKGRFTISRDNAKNTVYLQMNSLKPEDTAVYYCAAKAFYYYYTEHDYWGQGTQVTVSS”: the “polyreactivity (PSR sort gate)” value is listed as “high polyreactivity”.
Consider “QVQLVESGGGLVQAGGSLRLSCAASGSIFEEYAMGWYRQAPGKERELVARIDESGGSTYYADSVKGRFTISRDNAKNTVYLQMNSLKPEDTAVYYCAAERYSDSWGYYSVDEGSWEMDYWGQGTQVTVSS”, for which the “polyreactivity (PSR sort gate)” value was “low polyreactivity”.
As for “QVQLVESGGGLVQAGGSLRLSCAASGSIFEGNGMGWYRQAPGKERELVASITRSGGSTYYADSVKGRFTISRDNAKNTVYLQMNSLKPEDTAVYYCAVSRDSYGGKGSVLYDYWGQGTQVTVSS”, the “polyreactivity (PSR sort gate)” value was “low polyreactivity”.
As to “QVQLVESGGGLVQAGGSLRLSCAASGSIFEGNGRGWYREAPGKDRELVAAITFRSGSTYYADSVKGRFTISRDNAKNTVYLQMNSLKPEDTAVYYCAADEYYQVSAYDYWGQGTQVTVSS”, the “polyreactivity (PSR sort gate)” value is recorded as “low polyreactivity”.
As for “QVQLVESGGGLVQAGGSLRLSCAASGSIFEGSVMGWSRQAPGKEREWVATISFSGGSTYYADSVKGRFTISRDNAKNTLYLQMNSLKPEDTAVYYCNALVYHTKGDYGYWGQGTQVTVSS”, the “polyreactivity (PSR sort gate)” value is “low polyreactivity”.
The value for “QVQLVESGGGLVQAGGSLRLSCAASGSIFEGYAMGWYRQAPGKERELVAAISRSGGSTYYADSVKGRFTISRDNAKNTVYLQMNSLKPEDTAVYYCAARKAIDYQGRHDHWGQGTQVTVSS” was “low polyreactivity”.
Regarding “QVQLVESGGGLVQAGGSLRLSCAASGSIFEGYSMGWYRQAPAKERELVARITSDDDSTYYADSVKGRFTISRDNAKNTVYLQMNSLKPEDSAVYYCNADYYWTSLAMDSWGQGTQVTVSS”, the “polyreactivity (PSR sort gate)” value is on record as “low polyreactivity”.
As to “QVQLVESGGGLVQAGGSLRLSCAASGSIFEGYVMGCDIQAPGKERELVATISFSGGSTYYADSVKGRFTISRDNAKNTVYLQMNSLKPEDTAVYYCNALVYHTKGDYGYWGQGTQVTVSS”, the “polyreactivity (PSR sort gate)” value was “low polyreactivity”.
The value for “QVQLVESGGGLVQAGGSLRLSCAASGSIFELNAMGWYRQAPGKERELVAAIRWRTGRTYYADSVKGRFTISRDNAKNTVYLQMNSLKPEDTAVYYCAAPVRSGVRYTLDYWGQGTQVTVSS” was “high polyreactivity”; that for “QVQLVESGGGLVQAGGSLRLSCAASGSIFELNAMGWYRQAPGKERELVAAITSSGSSTYYADSVKGRFTISRDNAKNTVYLQMNSLKPEDTAVYYCFRPHDYWGQGTQVTVSS” was “low polyreactivity”; that for “QVQLVESGGGLVQAGGSLRLSCAASGSIFEPYTMGWYRQAPGKERELVAAITGSGCSKFYADSVKGRFTISRDNAKNTVYLQMNSLKPEDTGVYYCNAYAYPYTDVDYWGQGTQVTVSS” was “low polyreactivity”.
For “QVQLVESGGGLVQAGGSLRLSCAASGSIFEPYVMGWYRQAPGKERELVAAIRQTGGSTYYADSVKGRFTISRDNAKNTVYLQMNSLKPEDTAVYYCNAEQNPSALYDYRGVEGEMGYWGQGTQVTVSS” the value was “low polyreactivity”; for “QVQLVESGGGLVQAGGSLRLSCAASGSIFEQYAMGWYRQAPGKERELVAGINWSTGSTYYADSVKGRFTISRDNAKNTVYLQMNSLKPEDTAVYYCAAEVAGALSDYDYWGQGTQVNVSS”, “low polyreactivity”; for “QVQLVESGGGLVQAGGSLRLSCAASGSIFEQYTMGWYRQAPGKERELVAAISYSGGRTYYADSVKGRFTISRDNAKNTVYLQMNSLKPEDTAVYYCATRGRDRRIYGYWGQGTQVTVSS”, “high polyreactivity”.
For “QVQLVESGGGLVQAGGSLRLSCAASGSIFERYALGWYSQAPGKEREMVAAITWTGGRTYYADSVKGRFTISRDIAKNTVYLQMNSLKPEDTAVYYCARSYTRRGYDYWGLGTQVTVSS” the value was “high polyreactivity”; for “QVQLVESGGGLVQAGGSLRLSCAASGSIFESNGMGCYRQAPGKERELVASISNGDITYFADSVKGRFTISRDNAKNTVYLQMNSLKPEDTAVYYCAATLYRNYVIFRYDYSGQGTQVTVSS”, “low polyreactivity”; for “QVQLVESGGGLVQAGGSLRLSCAASGSIFEVYAMGWYRQAPGKDRELVAAITSSDITYYADSVKGRFTISRDNAKNTVYLQMNSLKPEDRAVFYCNAEPPYRVKRSDYWGQGTQVTVSS”, “low polyreactivity”.
As to “QVQLVESGGGLVQAGGSLRLSCAASGSIFEWNDMGWYRQAPGKEREFVAAITSTDDGTYYADSVKGRFTISRDNAKNTVYLQMNSLKPEVTAVYYCAVDYWDVPYYWGQGTQVTVSS”, the “polyreactivity (PSR sort gate)” value is “low polyreactivity”.
On to “QVQLVESGGGLVQAGGSLRLSCAASGSIFEWYAMGWYRQAPGKERELVADISSVGSTYYADSVKGRFTISRDNAKNTVYLQMNSLKPEDTAVYYCNTTYIIWYDSWGQGTQVTVSS”, for which the “polyreactivity (PSR sort gate)” value was “low polyreactivity”.
As to “QVQLVESGGGLVQAGGSLRLSCAASGSIFEYNAMGWYRQAPGKERELVAAISWSSGTTYYADSVKGRFTISRDNAKNTVYLQMNSLKPEDTAVNYCIAGRYGKDSDYWGQGTQVTVSS”, the “polyreactivity (PSR sort gate)” value is listed as “low polyreactivity”.
On to “QVQLVESGGGLVQAGGSLRLSCAASGSIFEYNAMGWYRQAPGKERELVAAITDTGSITYYADSVKGRFTISRDNAKNTVYLQMNSLKPEDTAVYYCAARAYPATAVDRRQPGNYWGQGSQVTVSS”, for which the “polyreactivity (PSR sort gate)” value is reported as “low polyreactivity”.
For “QVQLVESGGGLVQAGGSLRLSCAASGSIFEYNDMGWYRQAPGKERELVAAITTGGRTSYADSVKGRFTISRDNAKNTVYLQMNSLKPEDTAVYYCAAEPPAEFWTDRLVDYYVGYDYWGQGTQVTVSS”, the “polyreactivity (PSR sort gate)” value was “low polyreactivity”.
“QVQLVESGGGLVQAGGSLRLSCAASGSIFFDGNAMGWYRQAPGKERELVAAINSGGTTKYADSVKGRFTISRDNAKNTVYLQMNSLKPEDTAVYYCNAREGVFRYPVAHDYWGQGTQVTVSS”: the “polyreactivity (PSR sort gate)” value is recorded as “low polyreactivity”.
“QVQLVESGGGLVQAGGSLRLSCAASGSIFFDGNAMGWYRQAPGKERELVAAISVSGGSTYYADSVKGRFTISRDNAKNTVYLQMNSLKPDDTAVYYCAKFPSKSYVPGDYWGQGTQVTVSS”: the “polyreactivity (PSR sort gate)” value is on record as “low polyreactivity”.
With “QVQLVESGGGLVQAGGSLRLSCAASGSIFFDGNAMGWYRQAPGKERELVAAISVSGGSTYYADSVKGRFTISRDNAKNTVYLQMNSVKPEDTAVYYCAKYPSKSYVPGDYWGQGTQVTVSS”, the “polyreactivity (PSR sort gate)” value is on record as “low polyreactivity”.
The value for “QVQLVESGGGLVQAGGSLRLSCAASGSIFFGNAMGWYRQAPGKERELVAAITRRGGSTYYADSVKGRFTISRDNEKNTVYLQMNSLKPEDTAVYYCKAVSKRYGYGYWGLGTQVTVSS” was “high polyreactivity”; that for “QVQLVESGGGLVQAGGSLRLSCAASGSIFFGYAMGWYRQAPGKERELVAGISSNGGTTYYADSVKGRFTISRDYAKNTVYLQMNSLKPEDTAVYYCAKQYYARGYLYDYWGQGTQVTVSS” was “low polyreactivity”.
“QVQLVESGGGLVQAGGSLRLSCAASGSIFFGYGMGWYRQAPGKERELVATITTSGGTYYADSVKGRFTISRDNAKNTVYLQMNSLKPEDTAVYYCAATAAALDGNTIMYYWGQGTQVTVSS”: the “polyreactivity (PSR sort gate)” value is recorded as “low polyreactivity”.
On to “QVQLVESGGGLVQAGGSLRLSCAASGSIFFIYAMAWYRQAPGKERELVATISRSDVSTFYADSVKGRFTISRDNAKNTVYLQMNSLKPEDTAVYYCAARTGRGDRTRRYYYWGQGTQVTVSS”, for which the “polyreactivity (PSR sort gate)” value is “high polyreactivity”.
